From patent publication US20220332804A1 (CSL INNOVATION, published 2022)
Substitutions are numbered along the chain they refer to.

How the values were obtained:
Assay in all cases: SPR, KD relative to WT C2;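 also: biacore SPR at 37 °C, anti-C2 mAbs captured via immobilised goat anti-human IgG, C2 alanine or serine surface mutants as analytes, 1:1 model fitted, double-referenced sensograms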
human C2 L706A = target: T1, human C2 L706A (human, UniProt P06681 21-752)
T1 sequence: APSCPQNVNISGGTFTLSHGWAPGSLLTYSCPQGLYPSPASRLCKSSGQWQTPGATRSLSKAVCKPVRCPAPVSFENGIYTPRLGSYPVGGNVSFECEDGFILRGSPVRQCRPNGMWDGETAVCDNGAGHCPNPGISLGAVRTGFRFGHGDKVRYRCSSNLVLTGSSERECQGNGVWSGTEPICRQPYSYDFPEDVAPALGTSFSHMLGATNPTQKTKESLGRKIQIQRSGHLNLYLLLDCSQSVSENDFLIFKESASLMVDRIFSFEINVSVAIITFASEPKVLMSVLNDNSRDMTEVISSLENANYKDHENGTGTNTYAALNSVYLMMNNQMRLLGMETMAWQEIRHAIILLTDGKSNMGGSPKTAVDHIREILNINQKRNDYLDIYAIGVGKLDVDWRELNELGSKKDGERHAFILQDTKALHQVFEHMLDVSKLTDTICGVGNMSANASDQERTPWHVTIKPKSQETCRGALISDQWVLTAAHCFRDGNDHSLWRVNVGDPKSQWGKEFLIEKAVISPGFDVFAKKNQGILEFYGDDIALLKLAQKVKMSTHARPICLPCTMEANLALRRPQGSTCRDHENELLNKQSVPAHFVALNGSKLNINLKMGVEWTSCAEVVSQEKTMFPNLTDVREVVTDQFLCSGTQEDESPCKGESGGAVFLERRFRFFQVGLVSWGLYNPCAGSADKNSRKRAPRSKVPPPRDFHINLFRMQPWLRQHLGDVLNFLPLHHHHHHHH

human C2 S708A = target: T2, human C2 S708A (human, UniProt P06681 21-752)
T2 sequence: T1 sequence with A686L, S688A

human C2 N424A = target: T3, human C2 N424A (human, UniProt P06681 21-752)
T3 sequence: T1 sequence with N404A, A686L

human C2 T647A = target: T4, human C2 T647A (human, UniProt P06681 21-752)
T4 sequence: T1 sequence with T627A, A686L

B1: RF16-226 (antibody, human IgG4 S228P, lambda)
heavy: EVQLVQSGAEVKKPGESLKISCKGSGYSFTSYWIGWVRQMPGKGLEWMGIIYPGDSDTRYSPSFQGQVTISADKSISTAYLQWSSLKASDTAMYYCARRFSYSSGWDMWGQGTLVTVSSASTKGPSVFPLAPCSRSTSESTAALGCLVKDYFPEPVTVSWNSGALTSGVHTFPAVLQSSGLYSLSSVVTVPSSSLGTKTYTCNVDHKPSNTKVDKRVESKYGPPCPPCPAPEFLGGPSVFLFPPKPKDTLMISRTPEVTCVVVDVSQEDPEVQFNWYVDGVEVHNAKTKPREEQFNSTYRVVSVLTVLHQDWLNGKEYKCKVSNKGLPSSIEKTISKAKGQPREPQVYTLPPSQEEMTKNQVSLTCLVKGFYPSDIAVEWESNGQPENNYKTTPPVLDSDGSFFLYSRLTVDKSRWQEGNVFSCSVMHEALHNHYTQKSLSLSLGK
light: SYELTQPPSVSVSPGQTARITCSGDALTSKYVAWYQQKSGLAPLLVIYEDTRRPSGIPAKFSGSSSGSVATLTISGAHGDDEADYYCYSTDASGHQRVFGGGTKLTVLSQPKAAPSVTLFPPSSEELQANKATLVCLISDFYPGAVTVAWKADGSPVKAGVETTKPSKQSNNKYAASSYLSLTPEQWKSHRSYSCQVTHEGSTVEKTVAPTECS
notes: pH-dependent anti-C2 antibody from a phage display library; also called WT
In the case of B1, the Fold diff (human C2 L706A) is reported as 23 fold, the Fold diff (human C2 S708A) is reported as 2 fold and the Fold diff (human C2 N424A) is reported as 0 fold. The Fold diff (human C2 T647A) was 15 fold.
